Earlier results in PMC8136485, “Were Ancestral Proteins Less Specific?” (Molecular Biology and Evolution, 2021).

Target: NCX1 peptide (Homo sapiens) (UniProt P32418)
Settings: cited from earlier work

NCX1 peptide (Homo sapiens), sequence (P32418 36-973): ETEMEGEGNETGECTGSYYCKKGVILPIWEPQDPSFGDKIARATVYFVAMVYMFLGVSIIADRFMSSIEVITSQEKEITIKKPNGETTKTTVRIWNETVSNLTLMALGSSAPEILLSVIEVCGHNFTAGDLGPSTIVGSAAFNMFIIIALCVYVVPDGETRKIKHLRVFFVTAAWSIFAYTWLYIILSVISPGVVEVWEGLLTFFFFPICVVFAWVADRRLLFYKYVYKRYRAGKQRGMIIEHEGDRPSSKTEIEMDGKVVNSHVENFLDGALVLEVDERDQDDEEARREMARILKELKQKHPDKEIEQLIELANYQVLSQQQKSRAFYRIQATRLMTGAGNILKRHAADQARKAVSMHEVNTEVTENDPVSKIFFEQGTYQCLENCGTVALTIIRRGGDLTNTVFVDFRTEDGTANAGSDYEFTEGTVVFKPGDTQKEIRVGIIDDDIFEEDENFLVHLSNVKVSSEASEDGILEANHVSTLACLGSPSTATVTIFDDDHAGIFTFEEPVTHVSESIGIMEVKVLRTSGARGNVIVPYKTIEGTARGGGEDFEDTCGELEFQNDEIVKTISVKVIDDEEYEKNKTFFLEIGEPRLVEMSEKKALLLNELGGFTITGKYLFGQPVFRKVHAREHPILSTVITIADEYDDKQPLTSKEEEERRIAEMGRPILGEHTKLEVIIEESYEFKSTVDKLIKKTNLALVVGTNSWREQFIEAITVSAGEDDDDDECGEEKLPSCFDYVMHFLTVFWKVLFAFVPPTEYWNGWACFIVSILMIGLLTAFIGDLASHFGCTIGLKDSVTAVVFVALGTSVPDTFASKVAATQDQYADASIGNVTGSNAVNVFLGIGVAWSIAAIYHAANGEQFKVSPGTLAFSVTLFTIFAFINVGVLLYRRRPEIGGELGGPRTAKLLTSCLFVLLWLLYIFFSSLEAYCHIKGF
hA5 (S100A5), sequence (P33763 whole entry): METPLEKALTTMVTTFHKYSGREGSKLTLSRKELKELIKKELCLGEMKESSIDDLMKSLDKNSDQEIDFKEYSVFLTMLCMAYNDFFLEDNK

hA5 (S100A5) (from UniProt P33763)
Kd: 18 µM
